Results: PMC5533101 (Journal of Alzheimer's disease : JAD, 2004)

Molecular target: AβO(1-42), oligomeric non-fibrillar Aβ prepared from the peptide Aβ_(1-42) (UniProt P05067 672-713)
Assay: SPR

- Kd: 76.8 nM
B1: TR#2, recombinant TR segment containing the extracellular domain (ectodomain) (domain or fragment, UniProt Q9UIK5 56-301, looked up)
chain: CSGYDDRENDLFLCDTNTCKFDGECLRIGDTVTCVCQFKCNNDYVPVCGSNGESYQNECYLRQAACKQQSEILVVSEGSCATDAGSGSGDGVHEGSGETSQKETSTCDICQFGAECDEDAEDVWCVCNIDCSQTNFNPLCASDGKSYDNACQIKEASCQKQEKIEVMSLGRCQDNTTTTTKSEDGHYARTDYAENANKLEESAREHHIPCPEHYNGFCMHGKCEHSINMQEPSCRCDAGYTGQHCE
